Source: patent publication US12234463B2, “Engineered microorganisms with G3P → 3PG enzyme and/or fructose-1,6-bisphosphatase including those having synthetic or enhanced methylotrophy” (Genomatica, Inc., priority 2018, dated 2025)

How the values were obtained:
[1] = substrate: O=C[C@H](O)COP(=O)(O)O; assay: GapN vs. GapA kinetic comparison: catalytic constants of GapA (Table 18); type: biochemical, E. coli; conditions: other: fixed NAD; G3P varied
[2] = substrate: NC(=O)c1ccc[n+]([C@@H]2O[C@H](COP(=O)(O)OP(=O)(O)OC[C@H]3O[C@@H](n4cnc5c(N)ncnc54)[C@H](OP(=O)(O)O)[C@@H]3O)[C@@H](O)[C@H]2O)c1; assay: purified protein, by the assay type; conditions: other: fixed G3P; NADP varied

Protein | Km [1] [µM] | kcat [1] [s⁻¹] | kcat/Km [1] [M⁻¹ s⁻¹] | Km [2] [µM] | kcat [2] [s⁻¹] | kcat/Km [2] [M⁻¹ s⁻¹]
E. coli GapA (NAD-dependent glyceraldehyde-3-phosphate dehydrogenase A; P0A9B2) (Escherichia coli K-12) (protein, NAD-dependent; kinetic assay with G3P) MTIKVGINGFGRIGRIVFRAAQKRSDIEIVAINDLLDADYMAYMLKYDSTHGRFDGTVEVKDGHLIVNGKKIRVTAERDPANLKWDEVGVDVVAEATGLFLTDETARKHITAGAKKVVMTGPSKDNTPMFVKGANFDKYAGQDIVSNASCTTNCLAPLAKVINDNFGIIEGLMTTVHATTATQKTVDGPSHKDWRGGRGASQNIIPSSTGAAKAVGKVLPELNGKLTGMAFRVPTPNVSVVDLTVRLEKAATYEQIKAAVKAAAEGEMKGVLGYTEDDVVSTDFNGEVCTSVFDAKAGIALNDNFVKLVSWYDNETGYSNKVLDLIAHISK | 2000 ± 300 | 19 ± 1 | 9500 |  |  | 
Bacillus methanolicus PB1 GapN (NADP-dependent glyceraldehyde-3-phosphate dehydrogenase), cds 10662A (Bacillus methanolicus PB1) (protein) MQVLEKDHKFLLNGKWCYSSSNEFINIYSPSTGEIVGRVPAMTKDEIDKAVAGACQAQKNWEKLAVSDRAKILHAWADELVKMIDVIAPMIMNEVGKNISTAKREVIRTADIIRYTAEEGVRIHGEFINGGSLDADSSKKTAIVEKKPLGVILAISPFNYPINLAATKIAPALIAGNAVVFKPATQGAISGLLMIQALENAGLPEGLVNTVTGKGSEIGDYIITHPFIDMISFTGGTGTGQNIARKASMIPLVLELGGKDPAIVLEDADLELAAAEIVSGAFSYSGQRCTAIKRVIVLKDAAAPLIEKIKEKVEKLTVGKPEDDADITPLIDESSADFVQGLIDDALAKGATLITGNKREKNLIYPTVLSNVTKDMKVAWEEPFGPVLPCIIVDSAEEAIEIANESEFGLQASVFTTNIEKAFSIASSLDVGSVQINGRTERGPDHFPFSAVKNSGLGSQGIRQSIISMMRDKVTVINLKR |  |  |  | 320 ± 70 | 9.7 | 31000
Bacillus methanolicus MGA3 GapN (NADP-dependent glyceraldehyde-3-phosphate dehydrogenase), cds 10663A (Bacillus methanolicus MGA3) (protein) MQVLEKDFKFLLNGEWSFSSSNQFINIYSPSTGEVVGRVPAMTKDEIDKAVAGARQAQKKWEKLAVSERAKILHAWADELVKMIDVIAPMIMNEVGKNISTARKEVTRTAEIIRYTAEEGVRIHGEFINGGSLDADSSIKTAIVEKKPLGVILAISPFNYPINLAATKIAPALIAGNAVVFKPATQGAISGLLMIQALENAGLPKGLVNTVTGKGSEIGDYIITHPFIDMISFTGGTGTGQNIARKASMIPLVLELGGKDPAIVLEDADLELAATEIVSGAFSYSGQRCTAIKRVLVLKDVAAPLIEKIKEKVEKLTVGRPEDDADITPLIDESSADFVQGLIDDALAKGASLITGNKREKNLIYPTVLSNVTKDMKVAWEEPFGPVLPCIIVDSVEEAIEIANESEFGLQASVFTSNIEKAFTIASSLDVGSVQINGRTERGPDHFPFSAVKNSGLGSQGIRQSIISMMRDKVTVINLKK |  |  |  | 270 ± 40 | 8.2 | 30000
